T1: Human OX40 ECD-AFH (human)
T1 construct: ECD'; entry includes the C-terminal tags; also called OXF003; Human OX40 ECD-avi-flag-his
T1 chain: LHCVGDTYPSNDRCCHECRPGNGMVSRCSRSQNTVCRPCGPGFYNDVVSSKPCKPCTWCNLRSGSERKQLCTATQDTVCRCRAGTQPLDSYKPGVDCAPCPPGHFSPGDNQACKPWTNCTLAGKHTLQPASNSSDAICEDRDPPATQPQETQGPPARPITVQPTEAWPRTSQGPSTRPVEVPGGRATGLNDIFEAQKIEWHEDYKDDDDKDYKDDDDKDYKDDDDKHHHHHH

T2: Full-length Human OX40 (human, UniProt P43489 29-277)
T2 construct: also called OXF001; human OX40/CHO
T2 sequence: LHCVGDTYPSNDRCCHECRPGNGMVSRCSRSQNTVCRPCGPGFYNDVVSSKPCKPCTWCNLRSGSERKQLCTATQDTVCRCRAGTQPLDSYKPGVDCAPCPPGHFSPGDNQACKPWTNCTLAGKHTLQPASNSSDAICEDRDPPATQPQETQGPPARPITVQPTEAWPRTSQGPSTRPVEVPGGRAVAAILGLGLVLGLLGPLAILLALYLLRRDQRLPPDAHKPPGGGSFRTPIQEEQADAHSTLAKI

T3: Full-length Cyno 4-1BB (cynomolgus monkey, UniProt Q07011 24-255 (human entry))
T3 construct: on Jurkat or CHO cells; also called FOB006; cynomolgus 4-1BB
T3 chain: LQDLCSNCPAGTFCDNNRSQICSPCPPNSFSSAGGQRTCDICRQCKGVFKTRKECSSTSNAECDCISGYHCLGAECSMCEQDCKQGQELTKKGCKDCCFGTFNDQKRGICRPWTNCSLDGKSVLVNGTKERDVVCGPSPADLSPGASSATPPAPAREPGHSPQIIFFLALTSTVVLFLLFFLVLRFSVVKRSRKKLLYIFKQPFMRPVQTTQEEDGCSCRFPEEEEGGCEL

T4: Full-length Cyno OX40 (cynomolgus monkey, UniProt P43489 29-277 (human entry))
T4 construct: on CHO-K1SV cells; also called OXF004; cynomolgus OX40
T4 chain: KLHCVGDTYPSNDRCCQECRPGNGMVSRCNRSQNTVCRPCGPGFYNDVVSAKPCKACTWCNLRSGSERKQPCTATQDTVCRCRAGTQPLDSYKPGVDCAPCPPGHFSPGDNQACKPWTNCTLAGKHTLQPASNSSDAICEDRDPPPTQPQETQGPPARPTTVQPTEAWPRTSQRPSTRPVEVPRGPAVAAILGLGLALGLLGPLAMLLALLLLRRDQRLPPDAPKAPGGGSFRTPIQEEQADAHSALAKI


What was measured:
[1] = target: T1, Human OX40 ECD-AFH; test: SPR, construct captured, monomeric ECD as analyte
Procedure: (§1) Mouse anti-human IgG (GE, BR-1008-39) at 25 μg/ml in 10 mM sodium acetate pH 5.0 was immobilized at a density of ˜10,000 response units (RU) onto each flow cell of a CM5 research-grade sensor chip (GE) by standard amine coupling chemistry. Each binding protein at approximately 100 nM in HBS-EP+ with 0.2% BSA buffer was captured in a flow cell with the immobilized anti-human IgG at a flow rate of 10 μL/min for 20 seconds, leaving one flow cell surface unmodified as the reference. Using a single-cycle kinetics mode, five different concentrations of ECD were sequentially injected through each flow cell at 30 μL/min for 300 seconds followed by a 600 second dissociation period. Regeneration was achieved by injection of 3 M MgCl₂ at a flow rate of 30 μL/min for 30 seconds followed by HBS-EP+ with 0.2% BSA buffer stabilization for 1 min.
(§2) Sensorgrams obtained from kinetic SPR measurements were analyzed by the double subtraction method. The signal from the reference flow cell was subtracted from the analyte binding response obtained from flow cells with immobilized or captured ligands. Buffer reference responses were then averaged from multiple injections. The averaged buffer reference responses were then subtracted from analyte binding responses, and the final double-referenced data were analyzed with Biacore T200 Evaluation software (2.0, GE), globally fitting data to derive kinetic parameters. All sensorgrams were fitted using a simple one-to-one binding model.
(§3) Protein was produced by transient expression, purified by ProA chromatography and prep SEC.

[2] = target: T5, Human 4-1BB ECD-AFH (human); test: SPR, construct captured, monomeric ECD as analyte
T5 construct: entry includes the tags; also called FOB003; HUMAN CD137 ECD-AVI-FLAG-HIS
Procedure: as §1, §2, §3

[3] = target: T2, Full-length Human OX40; test: flow cytometry, CHO cells expressing human OX40
Procedure: (§4) FIGS. 12A-12D show the binding of anti-4-1BB x anti-OX40 constructs, with additional humanization in 4-1BB and altered orientations of binding domains, human (12A) or cynomolgus (12C) 4-1BB-expressing Jurkat cells or human (12B) or cynomolgus (12D) OX40-expressing CHOK1SV cells. Serial dilutions of ADAPTIR™ constructs were incubated with transfected cells and subsequently labelled with a fluorescently-conjugated goat-a-human Fc secondary antibody. […] (See Example 19.)
(§5) Binding studies were performed using the flow cytometry-based staining procedures described above.

[4] = target: T3, Full-length Cyno 4-1BB; test: flow cytometry on Jurkat cells transfected with cynomolgus 4-1BB, goat anti-human Fc secondary antibody, MFI (Mean)
Procedure: as §4, §5

[5] = target: T4, Full-length Cyno OX40; test: flow cytometry on CHOK1SV cells transfected with cynomolgus OX40, goat anti-human Fc secondary antibody, MFI (Mean)
Procedure: as §4, §5

[6] = target: T6, Full-length Human 4-1BB (human, UniProt Q07011 24-255); test: flow cytometry, Jurkat cells expressing human 4-1BB
T6 construct: also called FOB005; CD137
Procedure: as §4, §5

[7] = target: T2, Full-length Human OX40; test: cell-based or functional assay
[8] = target: T6, Full-length Human 4-1BB; test: cell-based or functional assay

Row | Binder | Kd [1] | koff [1] | kon [1] | Kd [2] | koff [2] | kon [2] | EC50 [3] | max MFI [3] | EC50 (read off the curve) [4] | EC50 (read off the curve) [5] | EC50 [6] | max MFI [6] | OX40 Reporter Assay EC50 [7] | OX40 Reporter Assay Max induction [7] | 4-1BB Reporter Assay EC50 [8] | 4-1BB Reporter Assay Max induction [8]
1 | FXX01099 (bispecific antibody, ADAPTIR anti-4-1BB (HL) x anti-OX40 with Q17K; also called FX01099) EVQLVQSGAEVKKPGASVKVSCKASGYTFTSYWMNWVRQAPGQGLEWMGNIYPSGGSTNYAQKFQGRVTMTVDTSTSTVYMELSSLRSEDTAVYYCASFSDGYYAYAMDYWGQGTLVTVSSGGGGSGGGGSGGGGSGGGGSEIVMTQSPATLSLSPGERATLSCRASQSVSSYLNWYQQKPGQAPRLLIYYASRRHTGIPARFSGSGSGTDFTLTISSLQPEDFAVYYCQQGYNLPYTFGQGTKVEIKEPKSSDKTHTCPPCPAPPAAAPSVFLFPPKPKDTLMISRTPEVTCVVVDVSHEDPEVKFNWYVDGVEVHNAKTKPREEQYNSTYRVVSVLTVLHQDWLNGKEYKCAVSNKALPAPIEKTISKAKGQPREPQVYTLPPSRDELTKNQVSLTCLVKGFYPSDIAVEWESNGQPENNYKTTPPVLDSDGSFFLYSKLTVDKSRWQQGNVFSCSVMHEALHNHYTQKSLSLSPGGGGSPSSYVLTQPPSVSVAPGKTARITCGGNNIGSKSVNWFQQKPGQAPVLVVYDDSGRPSGIPERFSGSTSGNTATLTISRVEAGDEADYYCQVWDSSSDHVVFGGGTKLTVLGGGGSGGGGSGGGGSGGGGSQVQLVESGGGVVQPGRSLRLSCAASGFTLSYYGMHWVRQAPGKGLEWVAAISHDGSDKYYADSVKGRFTISRDNSKNTLYLQMNSLRAEDTAVYYCSNDQFDPWGQGTLVTVSSR | 0.4 nM | 0.00028 s⁻¹ | 770000 M⁻¹ s⁻¹ | 14 nM | 0.0046 s⁻¹ | 330000 M⁻¹ s⁻¹ | 0.36 nM | 10400 MFI | ~0.3 nM | ~0.8 nM | 0.25 nM | 4900 MFI | 0.01 nM | 1.93e+06 | 0.017 nM | 6.65e+06
2 | FXX01104 (bispecific antibody, ADAPTIR anti-4-1BB (LH) x anti-OX40; also called FX01104) EIVMTQSPATLSLSPGERATLSCRASQSVSSYLNWYQQKPGQAPRLLIYYASRRHTGIPARFSGSGSGTDFTLTISSLQPEDFAVYYCQQGYNLPYTFGQGTKVEIKGGGGSGGGGSGGGGSGGGGSEVQLVQSGAEVKKPGASVKVSCKASGYTFTSYWMNWVRQAPGQGLEWMGNIYPSGGSTNYAQKFQGRVTMTVDTSTSTVYMELSSLRSEDTAVYYCASFSDGYYAYAMDYWGQGTLVTVEPKSSDKTHTCPPCPAPPAAAPSVFLFPPKPKDTLMISRTPEVTCVVVDVSHEDPEVKFNWYVDGVEVHNAKTKPREEQYNSTYRVVSVLTVLHQDWLNGKEYKCAVSNKALPAPIEKTISKAKGQPREPQVYTLPPSRDELTKNQVSLTCLVKGFYPSDIAVEWESNGQPENNYKTTPPVLDSDGSFFLYSKLTVDKSRWQQGNVFSCSVMHEALHNHYTQKSLSLSPGGGGSPSSYVLTQPPSVSVAPGQTARITCGGNNIGSKSVNWFQQKPGQAPVLVVYDDSGRPSGIPERFSGSTSGNTATLTISRVEAGDEADYYCQVWDSSSDHVVFGGGTKLTVLGGGGSGGGGSGGGGSGGGGSQVQLVESGGGVVQPGRSLRLSCAASGFTLSYYGMHWVRQAPGKGLEWVAAISHDGSDKYYADSVKGRFTISRDNSKNTLYLQMNSLRAEDTAVYYCSNDQFDPWGQGTLVTVSSR | 0.5 nM | 0.00032 s⁻¹ | 710000 M⁻¹ s⁻¹ | 17 nM | 0.0055 s⁻¹ | 320000 M⁻¹ s⁻¹ | 0.32 nM | 10400 MFI | ~0.3 nM | ~0.8 nM | 0.31 nM | 4860 MFI | 0.013 nM | 1.99e+06 | 0.011 nM | 6.11e+06
3 | FXX01105 (bispecific antibody, ADAPTIR anti-4-1BB (LH) x anti-OX40 with Q17K; also called FX01105) EIVMTQSPATLSLSPGERATLSCRASQSVSSYLNWYQQKPGQAPRLLIYYASRRHTGIPARFSGSGSGTDFTLTISSLQPEDFAVYYCQQGYNLPYTFGQGTKVEIKGGGGSGGGGSGGGGSGGGGSEVQLVQSGAEVKKPGASVKVSCKASGYTFTSYWMNWVRQAPGQGLEWMGNIYPSGGSTNYAQKFQGRVTMTVDTSTSTVYMELSSLRSEDTAVYYCASFSDGYYAYAMDYWGQGTLVTVEPKSSDKTHTCPPCPAPPAAAPSVFLFPPKPKDTLMISRTPEVTCVVVDVSHEDPEVKFNWYVDGVEVHNAKTKPREEQYNSTYRVVSVLTVLHQDWLNGKEYKCAVSNKALPAPIEKTISKAKGQPREPQVYTLPPSRDELTKNQVSLTCLVKGFYPSDIAVEWESNGQPENNYKTTPPVLDSDGSFFLYSKLTVDKSRWQQGNVFSCSVMHEALHNHYTQKSLSLSPGGGGSPSSYVLTQPPSVSVAPGKTARITCGGNNIGSKSVNWFQQKPGQAPVLVVYDDSGRPSGIPERFSGSTSGNTATLTISRVEAGDEADYYCQVWDSSSDHVVFGGGTKLTVLGGGGSGGGGSGGGGSGGGGSQVQLVESGGGVVQPGRSLRLSCAASGFTLSYYGMHWVRQAPGKGLEWVAAISHDGSDKYYADSVKGRFTISRDNSKNTLYLQMNSLRAEDTAVYYCSNDQFDPWGQGTLVTVSSR | 0.4 nM | 0.00027 s⁻¹ | 710000 M⁻¹ s⁻¹ | 19 nM | 0.0055 s⁻¹ | 290000 M⁻¹ s⁻¹ | 0.35 nM | 10500 MFI | ~0.3 nM | ~0.8 nM | 0.33 nM | 4940 MFI | 0.01 nM | 1.97e+06 | 0.014 nM | 6.58e+06
